Paper PMC2529310, “An amphioxus orthologue of the estrogen receptor that does not bind estradiol: Insights into estrogen receptor evolution”

Biological target: T1, amphioxus ER (amphiER) (Branchiostoma floridae, UniProt B3V8B7 1-705)
T1 sequence: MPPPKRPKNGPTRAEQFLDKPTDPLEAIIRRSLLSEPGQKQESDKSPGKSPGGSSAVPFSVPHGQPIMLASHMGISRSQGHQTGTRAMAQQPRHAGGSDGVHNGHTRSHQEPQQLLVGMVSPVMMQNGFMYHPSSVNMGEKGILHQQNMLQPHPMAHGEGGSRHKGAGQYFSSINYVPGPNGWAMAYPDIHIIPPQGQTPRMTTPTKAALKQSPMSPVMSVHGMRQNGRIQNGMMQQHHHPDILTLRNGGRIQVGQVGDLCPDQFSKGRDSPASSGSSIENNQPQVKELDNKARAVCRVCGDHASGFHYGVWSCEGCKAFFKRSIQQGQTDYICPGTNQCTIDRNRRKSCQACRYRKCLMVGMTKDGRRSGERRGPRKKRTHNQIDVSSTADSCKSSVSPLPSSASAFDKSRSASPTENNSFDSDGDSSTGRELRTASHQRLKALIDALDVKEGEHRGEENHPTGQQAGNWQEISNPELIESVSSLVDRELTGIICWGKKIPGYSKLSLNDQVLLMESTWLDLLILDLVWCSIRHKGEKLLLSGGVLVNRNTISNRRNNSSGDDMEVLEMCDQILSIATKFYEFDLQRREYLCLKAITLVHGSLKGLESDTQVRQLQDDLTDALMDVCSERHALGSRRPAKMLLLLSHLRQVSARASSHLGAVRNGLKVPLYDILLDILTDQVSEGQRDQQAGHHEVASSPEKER
Test: EMSA; EMSA as previously described (ref 93); buffer, salt, pH and temperature not given; in vitro translated proteins in reticulocyte lysate; 10- and 100-fold molar excess of competitors
Details: protein: ivt; chain copies: 2; label: 32P; blunt (only one strand printed; 30 bp stated; strand is nearly self-complementary)

B1: consensus ERE (dsDNA)
DNA 1: CGGGCCGAGGTCACAGTGACCTCGGCCCGT
DNA 2: ACGGGCCGAGGTCACTGTGACCTCGGCCCG
- binding result: binds
